Data: paper PMC4231766

Tested on: 340R WT (MBP fusion) (Invertebrate iridescent virus 6 (IIV-6))
Experiment: EMSA
Settings: EMSA 1 h at room temperature, 5 ng long dsRNA or 1 nM siRNA/19-nt dsRNA; 6% or 12% native PAGE; binding buffer not given (as ref 11); protein dialysis/storage …

Substance | Kd [nM]
19-nt blunt dsRNA | 1170
126-nt long dsRNA | 139
21-nt siRNA duplex | 718
